Results published in patent US20190248902A1 (published 2019).
Substitutions are numbered along the chain they refer to.

T1: human ASGR-1 (wild type) (human, UniProt P07306 1-291)
T1 construct: also called wt ASGR1; huASGR-1
T1 sequence: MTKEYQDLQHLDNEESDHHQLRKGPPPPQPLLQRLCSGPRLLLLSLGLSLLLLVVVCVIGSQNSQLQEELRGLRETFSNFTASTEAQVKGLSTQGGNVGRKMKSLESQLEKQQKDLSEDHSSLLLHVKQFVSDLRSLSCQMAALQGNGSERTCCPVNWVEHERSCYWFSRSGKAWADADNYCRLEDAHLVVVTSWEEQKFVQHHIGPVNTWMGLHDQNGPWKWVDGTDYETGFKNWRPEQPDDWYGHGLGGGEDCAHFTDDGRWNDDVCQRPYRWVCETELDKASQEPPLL

T2: human ASGR-1 mutant construct H203 (human, UniProt P07306 1-291)
T2 construct: Arg/Glu scanning: non-arginine residues were changed to arginine; Transiently expressed on CHO-S cells
T2 sequence: T1 sequence with H203R

B1: 4B1 (antibody, V domains shown)
VH: QVQLQESGPGLVKPSETLSLTCSVSGDSISSYSWSWIRQPAGKGLEWIGRIYTSGSTNYIPSLKSRITMSVDTSKKQFSLKLSSVTAADTAVYYCARDLKSSGCLFFDYWGQGTLVTVSS
VL: DIQMTQSPSSLSASVGDRVTITCRASHTIRTYLNWYQQKPGKAPKLLIYAASSLQSGVPSRINGSGSGTDFTLTITNLQPEDFATYYCQQSYNISFTFGPGTKVDIK
notes: mAb
B2: 54E9 (antibody, V domains shown)
VH: QVQLVQSGAEVKKPGASVKVSCKASGYTFNSYGISWVRLAPGQGLEWMGWISAYNGNTKNAQKLQGRVTMTTDTSTSTAYMELRSLRSDDTAVYYCARHDFWSGYYKGMDVWGQGTTVTVSS
VL: not shown
notes: mAb
B3: 12D2 (antibody, V domains shown)
VH: EVQLVESGGGLVKPGGSLRLSCAASGFTFSSYSMNWVRQAPGKGLEWVSSISSSSSYIYYADSVKGRFTISRDNAKNSLYLQMNSLRAEDTAVYYCARLGDYWGQGTLVAVSS
VL: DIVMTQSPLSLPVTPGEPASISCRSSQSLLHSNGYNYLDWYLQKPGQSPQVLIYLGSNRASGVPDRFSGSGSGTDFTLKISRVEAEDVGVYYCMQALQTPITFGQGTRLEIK
notes: mAb
B4: 198D2 (antibody, V domains shown)
VH: QVQLVESGGGVVQPGRSLRLSCAASGFTFRSYGMHWVRQAPGKGLEWVAVIIYDGSYKYYADSVKGRFTISRDNSKNTLYLQMNSLRAEDTAVYYCARTYSGGMDVWGQGTTVTVSS
VL: QSVLTQPPSVSAAPGQKVTISCSGSSSNIGSNYVSWYQQLPGTAPKVLIYDNNKRPSGIPDRFSGSKSGTSATLGITGLQTGDEADYYCGTWDSRLNVGVFGGGTKLTVL
notes: mAb
B5: 199A7 (antibody, V domains shown)
VH: QVQLVESGGGVVQPGRSLRLSCAASGFTFSNYGMHWVRQAPGKGLEWVAIIWFDGSNKYYADSVKGRFTISRDNSKNTLFLQMSSLRAEDTAVYYCAREWLQFRYYYGMDVWGQGTTVTVSS
VL: DIQMTQSPSSLSASVGDRVTITCRASQGIRKDLGWYQQKPGKAPKRLIYAASSLQSGVPSRFSGSGSGTEFTLTISSLQPEDFATYVCLQHYRYPFTFGPGTKVDFK
notes: mAb
B6: 146B6 (antibody, V domains shown)
VH: EVQLVESGGGLVQPGGSLRLSCAASGFTFSSYNMNWVRQAPGKGLEWVSYISRSSNTKHYADSVKGRFTISRDNAKNSLYLQMDSLRDEDTAVYYCARDRSGSYGYFYYYGLDVWGQGTTVTVSS
VL: not shown
notes: mAb
B7: 65C12 (antibody, V domains shown)
VH: EVQLVESGGGLVKPGGSLRLSCAASGFTFRSFSLNWVRQAPGKGLEWVSSISSSSSYIYYADSVKGRFTISRDNAKNSLYLQMNSLRAEDTAVYYCARDAYSHYWGQGTLVTVSS
VL: EIVMTQSPATLSVFPGEGATLSCRASQSVSINLAWYQQKPGQAPRLLIYGASTRATGIPARFNASGSGTEFTLSISSLQSENFAVYYCQQYNTWPLTFGGGTKVEIK
notes: mAb
B8: 213B3 (antibody, V domains shown)
VH: QVQLVESGGGVVQPGRSLRLSCAASGFTFSSYGMHWVRQAPGKGLEWVAVIWYDGSNKNYADSVKGRFTISRDNSKNTLYLQMNSLRAEDTAVYYCARDRTVGYDGFDIWGQGTMVTVSS
VL: DIQMTQSPSSLSASVGDRVTITCRASQGIGKYLAWFQQKPGKAPKSLISAASSVLSGVPSKFSGSGSGTDFTLTISSLQPEDFATYYCQKYDTYPFTFGPGTKVDIK
notes: mAb
B9: 85F7 (antibody, V domains shown)
VH: QVQLQQWGAGLLKPSEPLSLTCAVYGGSFSGPYWSWIRQPPGKGLEWIGEINHSGSTNYNPSLKSRVTISVDTSKNQFSLKLTSVTAADTAVYYCARDYGGLDVWGQGTTVTVSS
VL: EPVLTQSPGTLSLSPGERATLSCRASQNIYSNYLAWYQQKPGQAPRLLIYGASSRATGIPDRFSGSGSGTDFTLTISRLEPEDFAVYCCQQYESSPWTFGQGTKVEIK
notes: mAb

Target: T1, human ASGR-1 (wild type)
Assay: flow cytometry, CHO-S:huASGR-1 cells, 11-point titration
Method: CHO—S stable high-expressing cell line were developed for both human ASGR-1 as well as mouse ASGR-1. A typical 384 well plate multiplex flow cytometery-based cell binding method is described as followed: Parental CHO—S cells and CHO—S:huASGR-1 cells were respectively labeled using a CellTrace CFSE Cell Proliferation Kit (ThermoFisher Catalog #C34554) and CellTrace Violet Cell Proliferation Kit (ThermoFisher Catalog#C34557) CHO—S:muASGR-1 were not labeled. 20 ul of cells at 4C were added to duplicate wells of the 384 well plate. The cells were equally mixed from all three cell lines (30K cells/well). Then 20 ul of the ASGR-1 antibodies (either purified from hybridoma supernatants or made recombinantly) were added in an 11-point dose response using a 1:2 fold serial dilution starting at 100 nM. The cells and antibodies were incubated for 30 min at 4C and then spun down and washed twice with FACS buffer containing 1 mM CaCl2. 30 ul of anti-hulgG-APC secondary antibodies were then added at a 1:1000 dilution) for 30 min at 4C and then washed once with the same buffer. 60 ul of PI (1:1000) was added and then the cells were read by a core flow cytometry facility. The cells were gated first for live cells, then for single cells and finally for the cell dyes to separate the mixed cells into the three different cell populations. Histograms of signal vs count representing the binding profile of each antibody at each antibody concentration were automatically analyzed for the median of the binding signal and then a binding graph was made with log 10 antibody concentration in nM on the X axis with […] from the duplicate wells on the Y-axis. The binding curves were fit with a standard four parameter sigmoidal binding curve and EC50's reported for all graphs with full curves.

EC50 [nM]	Binder
4.1	B1
5	B2
3.2	B3
0.14	B4

Target: T2, human ASGR-1 mutant construct H203
Assay: FACS ratio: H203 normalized value / wt normalized value
Method: (§1) The ability of human ASGR-1-specific, ligand competing antibodies to bind to the mutant hASGR-1 proteins was assessed by FACS as described above.
(§2) Antibodies were tested for binding to the individual mutant and wild type ASGR-1 constructs using normalized antibody concentrations (5 ug/ml). CHO—S cells transiently expressing the appropriate mutated or non-mutated antigen of interest were mixed with antibody sample or controls, incubated for 1 hour at 4° C., and then washed twice. Cells with bound antibody were then incubated with Alexa Fluor® 647 IgG Fc fragment-specific detection antibody and 7-AAD viability stain for 15 minutes at 4° C., washed once and resuspended in FACS buffer. Samples were analyzed using a BD Accuri™ Flow Cytometer and an Intellicyt HyperCyt Autosampler. As a negative control, supernatants and controls were also screened against CHO—S cells transfected with empty parental vector (referred to as mock). […] Because mutant hASGR-1 expression levels varied relative to each other, sample binding data for each construct was normalized for expression by dividing the binding data from an antibody not affected by the mutations (e.g., 65C12) by the binding values of each test antibody on a given mutant construct. Also, because the antibody binding affinities varied amongst the samples, the expression corrected data (above) was further normalized by comparing test antibody binding on each mutant construct to wild type hASGR-1. Identification of specific mutations that affected test antibody binding was performed by an interquartile range (IQR) analysis to determine statistical outliers. A mutation was identified as a “hit” if the calculated values were >3× the IQR (above the 3rd quartile/upper fence) for a given mutant construct. Although IQR analysis was used here to determine signifance and identify hits, one skilled in the art will recognize that a number of methods could be employed in order to normalize the data (eg. using epitope-tagged constructs or other ASGR-1-binding antibodies directed against non-CBD epitopes).

Normalization to wt ASGR1 Binding	Binder
1.16	B2
0.826	B5
0.769	B6
1	B7
0.539	B8
0.917	B9
1.09	B4

Target: T2, human ASGR-1 mutant construct H203
Assay: FACS, transfected CHO-S cells, mAb 5 ug/ml
Method: as §1, §2

FACS Binding Geomean	Binder
15300	B2
9460	B5
14400	B6
25800	B7
12800	B8
16500	B9
7140	B4

Target: T1, human ASGR-1 (wild type)
Assay: FACS, transfected CHO-S cells, mAb 5 ug/ml
Method: as §1, §2

FACS Binding Geomean	Binder
38600	B2
17000	B5
24100	B6
56100	B7
15100	B8
33000	B9
16900	B4

Target: T2, human ASGR-1 mutant construct H203
Assay: FACS ratio: 65C12 geomean / this mAb geomean
Method: (§3) Mutant hASGR-1 variants were constructed such that non-arginine residues were changed to arginine and where wild type arginine residues were mutated to glutamic acid. Each mutant hASGR-1 sequence was then cloned into a mammalian expression vector and used to transiently transfect CHOs cells. The ability of human ASGR-1-specific, ligand competing antibodies to bind to the mutant hASGR-1 proteins was assessed by FACS as described above.
(§4) Antibodies were tested for binding to the individual mutant and wild type ASGR-1 constructs using normalized antibody concentrations (5 ug/ml). CHO—S cells transiently expressing the appropriate mutated or non-mutated antigen of interest were mixed with antibody sample or controls, incubated for 1 hour at 4° C., and then washed twice. Cells with bound antibody were then incubated with Alexa Fluor® 647 IgG Fc fragment-specific detection antibody and 7-AAD viability stain for 15 minutes at 4° C., washed once and resuspended in FACS buffer. Samples were analyzed using a BD Accuri™ Flow Cytometer and an Intellicyt HyperCyt Autosampler. As a negative control, supernatants and controls were also screened against CHO—S cells transfected with empty parental vector (referred to as mock). […] Because mutant hASGR-1 expression levels varied relative to each other, sample binding data for each construct was normalized for expression by dividing the binding data from an antibody not affected by the mutations (e.g., 65C12) by the binding values of each test antibody on a given mutant construct. Also, because the antibody binding affinities varied amongst the samples, the expression corrected data (above) was further normalized by comparing test antibody binding on each mutant construct to wild type hASGR-1. Identification of specific mutations that affected test antibody binding was performed by an interquartile range (IQR) analysis to determine statistical outliers. A mutation was identified as a “hit” if the calculated values were >3× the IQR (above the 3rd quartile/upper fence) for a given mutant construct.

Expression Normalization to mAb 65C12	Binder
1.68	B2
2.72	B5
1.79	B6
1	B7
2.01	B8
1.56	B9
3.61	B4

Target: T1, human ASGR-1 (wild type)
Assay: FACS ratio: 65C12 geomean / this mAb geomean
Method: as §3, §4

Expression Normalization to mAb 65C12	Binder
1.45	B2
3.3	B5
2.32	B6
1	B7
3.72	B8
1.7	B9
3.32	B4
